Reference: publication PMC5499591 (Nucleic Acids Research, 2017)

T1: wild-type GST-Mcm10 (Saccharomyces cerevisiae, UniProt P32354 1-571)
T1 sequence: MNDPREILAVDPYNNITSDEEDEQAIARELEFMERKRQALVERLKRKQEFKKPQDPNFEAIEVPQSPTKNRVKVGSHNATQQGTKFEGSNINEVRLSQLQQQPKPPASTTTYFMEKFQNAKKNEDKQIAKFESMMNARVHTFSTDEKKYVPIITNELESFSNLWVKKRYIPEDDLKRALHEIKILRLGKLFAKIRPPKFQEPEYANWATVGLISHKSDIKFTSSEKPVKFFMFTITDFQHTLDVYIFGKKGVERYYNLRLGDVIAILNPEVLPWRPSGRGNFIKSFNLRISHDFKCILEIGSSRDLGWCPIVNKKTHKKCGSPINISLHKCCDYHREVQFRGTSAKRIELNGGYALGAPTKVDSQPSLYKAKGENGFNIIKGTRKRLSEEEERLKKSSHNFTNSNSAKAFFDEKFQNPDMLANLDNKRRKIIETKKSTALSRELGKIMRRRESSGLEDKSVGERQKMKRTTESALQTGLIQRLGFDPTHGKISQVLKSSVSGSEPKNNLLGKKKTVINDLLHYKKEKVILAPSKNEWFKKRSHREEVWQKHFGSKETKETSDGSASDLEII

T2: GST-p180 (budding yeast (S. cerevisiae), UniProt P13382 1-1468)
T2 sequence: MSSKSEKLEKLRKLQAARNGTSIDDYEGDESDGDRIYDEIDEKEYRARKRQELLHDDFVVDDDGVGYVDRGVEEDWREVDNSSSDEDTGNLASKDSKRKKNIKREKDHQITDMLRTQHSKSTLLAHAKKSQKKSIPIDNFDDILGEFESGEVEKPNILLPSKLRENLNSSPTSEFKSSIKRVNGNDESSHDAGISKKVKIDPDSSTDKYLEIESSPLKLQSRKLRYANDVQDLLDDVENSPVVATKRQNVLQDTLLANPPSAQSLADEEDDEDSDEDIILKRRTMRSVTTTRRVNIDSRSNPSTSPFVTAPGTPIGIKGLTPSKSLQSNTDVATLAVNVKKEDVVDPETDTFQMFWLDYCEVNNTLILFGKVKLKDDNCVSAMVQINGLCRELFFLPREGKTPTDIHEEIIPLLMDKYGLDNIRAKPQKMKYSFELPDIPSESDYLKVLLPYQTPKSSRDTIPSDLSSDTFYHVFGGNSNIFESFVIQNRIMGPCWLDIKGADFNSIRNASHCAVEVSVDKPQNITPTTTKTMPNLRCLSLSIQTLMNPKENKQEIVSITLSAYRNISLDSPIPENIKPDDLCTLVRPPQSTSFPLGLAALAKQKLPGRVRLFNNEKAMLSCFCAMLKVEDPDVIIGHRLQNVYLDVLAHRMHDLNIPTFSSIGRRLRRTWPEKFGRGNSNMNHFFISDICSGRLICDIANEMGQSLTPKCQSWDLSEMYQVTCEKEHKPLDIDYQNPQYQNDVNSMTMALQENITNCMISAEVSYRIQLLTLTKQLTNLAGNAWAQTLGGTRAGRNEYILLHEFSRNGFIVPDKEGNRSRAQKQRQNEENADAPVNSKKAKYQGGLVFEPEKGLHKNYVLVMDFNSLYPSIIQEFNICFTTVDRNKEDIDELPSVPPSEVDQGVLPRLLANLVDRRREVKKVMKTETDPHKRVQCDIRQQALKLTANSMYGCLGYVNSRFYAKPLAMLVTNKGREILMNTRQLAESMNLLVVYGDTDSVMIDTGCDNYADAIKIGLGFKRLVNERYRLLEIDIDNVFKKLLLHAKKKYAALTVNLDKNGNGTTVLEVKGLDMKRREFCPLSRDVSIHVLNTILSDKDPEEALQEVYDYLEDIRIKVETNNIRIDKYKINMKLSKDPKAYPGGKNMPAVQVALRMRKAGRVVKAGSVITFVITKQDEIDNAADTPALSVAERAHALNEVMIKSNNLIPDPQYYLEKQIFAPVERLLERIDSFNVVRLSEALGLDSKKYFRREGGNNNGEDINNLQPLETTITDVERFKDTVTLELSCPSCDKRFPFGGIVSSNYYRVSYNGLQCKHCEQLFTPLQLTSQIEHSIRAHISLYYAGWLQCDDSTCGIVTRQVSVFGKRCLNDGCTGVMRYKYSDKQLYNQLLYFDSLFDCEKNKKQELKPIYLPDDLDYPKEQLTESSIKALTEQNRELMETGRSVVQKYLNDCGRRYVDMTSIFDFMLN

T3: GST-Dbf4 (budding yeast (S. cerevisiae), UniProt P32325 1-704)
T3 sequence: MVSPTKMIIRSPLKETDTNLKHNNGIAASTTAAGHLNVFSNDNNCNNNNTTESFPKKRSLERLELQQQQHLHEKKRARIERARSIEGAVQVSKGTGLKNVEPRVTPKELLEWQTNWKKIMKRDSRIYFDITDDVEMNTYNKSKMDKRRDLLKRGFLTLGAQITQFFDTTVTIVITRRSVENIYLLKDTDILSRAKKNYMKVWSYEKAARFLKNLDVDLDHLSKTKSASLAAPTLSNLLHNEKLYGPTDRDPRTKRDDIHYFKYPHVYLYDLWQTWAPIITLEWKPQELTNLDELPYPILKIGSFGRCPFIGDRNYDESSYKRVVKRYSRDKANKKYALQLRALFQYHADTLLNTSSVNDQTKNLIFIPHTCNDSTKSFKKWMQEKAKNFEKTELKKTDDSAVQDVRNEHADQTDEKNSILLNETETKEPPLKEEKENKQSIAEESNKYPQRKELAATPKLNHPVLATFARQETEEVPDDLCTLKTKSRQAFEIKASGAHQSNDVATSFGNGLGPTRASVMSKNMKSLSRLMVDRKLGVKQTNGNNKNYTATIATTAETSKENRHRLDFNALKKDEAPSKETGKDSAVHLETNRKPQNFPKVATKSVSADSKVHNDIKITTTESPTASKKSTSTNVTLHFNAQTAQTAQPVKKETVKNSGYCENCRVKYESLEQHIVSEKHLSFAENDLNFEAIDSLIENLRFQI

T4: GST-Cdc45 (budding yeast (S. cerevisiae), UniProt Q08032 1-650)
T4 sequence: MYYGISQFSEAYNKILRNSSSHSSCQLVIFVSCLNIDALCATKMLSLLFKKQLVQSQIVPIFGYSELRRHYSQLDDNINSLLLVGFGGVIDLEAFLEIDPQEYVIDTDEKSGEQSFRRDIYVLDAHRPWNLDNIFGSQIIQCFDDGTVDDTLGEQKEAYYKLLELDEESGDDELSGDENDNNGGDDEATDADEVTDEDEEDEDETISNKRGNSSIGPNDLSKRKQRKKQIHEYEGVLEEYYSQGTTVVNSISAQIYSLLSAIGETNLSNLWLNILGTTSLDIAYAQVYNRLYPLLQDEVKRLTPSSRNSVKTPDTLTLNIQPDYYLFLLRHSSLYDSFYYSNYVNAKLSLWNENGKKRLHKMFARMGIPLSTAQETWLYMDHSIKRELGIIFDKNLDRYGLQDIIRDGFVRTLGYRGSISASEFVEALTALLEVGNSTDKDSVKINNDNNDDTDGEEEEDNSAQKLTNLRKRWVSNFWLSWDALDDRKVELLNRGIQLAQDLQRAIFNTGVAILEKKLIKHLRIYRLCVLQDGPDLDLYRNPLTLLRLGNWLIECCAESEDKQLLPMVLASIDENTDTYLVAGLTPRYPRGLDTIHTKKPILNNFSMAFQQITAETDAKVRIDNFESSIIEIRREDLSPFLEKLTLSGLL

T5: GST-Mcm10 (wild type) (Saccharomyces cerevisiae, UniProt P32354 1-571)
T5 sequence: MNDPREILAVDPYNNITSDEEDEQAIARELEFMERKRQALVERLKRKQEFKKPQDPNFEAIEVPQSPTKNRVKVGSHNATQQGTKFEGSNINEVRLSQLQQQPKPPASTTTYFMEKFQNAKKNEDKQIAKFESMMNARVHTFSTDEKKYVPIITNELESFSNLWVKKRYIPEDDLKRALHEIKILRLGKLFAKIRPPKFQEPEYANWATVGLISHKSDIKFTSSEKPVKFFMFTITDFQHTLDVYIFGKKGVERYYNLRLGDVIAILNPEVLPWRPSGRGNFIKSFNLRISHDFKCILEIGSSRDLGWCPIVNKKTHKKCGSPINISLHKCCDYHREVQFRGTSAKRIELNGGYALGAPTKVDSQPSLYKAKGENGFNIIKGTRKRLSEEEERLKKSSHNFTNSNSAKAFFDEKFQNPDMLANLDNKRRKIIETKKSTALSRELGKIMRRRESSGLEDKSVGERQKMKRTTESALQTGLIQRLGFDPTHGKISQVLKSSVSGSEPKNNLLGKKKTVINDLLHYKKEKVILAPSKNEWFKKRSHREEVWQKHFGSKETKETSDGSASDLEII


Tests used:
wild-type GST-Mcm10 = target: T1, wild-type GST-Mcm10; experiment: pull-down
GST-p180 = target: T2, GST-p180; experiment: pull-down
[1] = target: radiolabeled PKA-Mcm2–7 complex (budding yeast (S. cerevisiae), UniProt P29469;P24279;P30665;P29496;P53091;P38132); experiment: pull-down
GST-Dbf4 = target: T3, GST-Dbf4; experiment: pull-down
GST-Cdc45 = target: T4, GST-Cdc45; experiment: pull-down
GST-Mcm10 (wild type) = target: T5, GST-Mcm10 (wild type); experiment: GST pull-down

binding result (GST-p180)	Binder	binding result (GST-Mcm10 (wild type))	also measured
binds	radiolabeled wild-type PKA-Mcm10 (natural protein, 32P label put on the PKA tag by protein kinase A with [gamma-32P]-ATP) MNDPREILAVDPYNNITSDEEDEQAIARELEFMERKRQALVERLKRKQEFKKPQDPNFEAIEVPQSPTKNRVKVGSHNATQQGTKFEGSNINEVRLSQLQQQPKPPASTTTYFMEKFQNAKKNEDKQIAKFESMMNARVHTFSTDEKKYVPIITNELESFSNLWVKKRYIPEDDLKRALHEIKILRLGKLFAKIRPPKFQEPEYANWATVGLISHKSDIKFTSSEKPVKFFMFTITDFQHTLDVYIFGKKGVERYYNLRLGDVIAILNPEVLPWRPSGRGNFIKSFNLRISHDFKCILEIGSSRDLGWCPIVNKKTHKKCGSPINISLHKCCDYHREVQFRGTSAKRIELNGGYALGAPTKVDSQPSLYKAKGENGFNIIKGTRKRLSEEEERLKKSSHNFTNSNSAKAFFDEKFQNPDMLANLDNKRRKIIETKKSTALSRELGKIMRRRESSGLEDKSVGERQKMKRTTESALQTGLIQRLGFDPTHGKISQVLKSSVSGSEPKNNLLGKKKTVINDLLHYKKEKVILAPSKNEWFKKRSHREEVWQKHFGSKETKETSDGSASDLEII	–	binding result (wild-type GST-Mcm10): binds
–	GST-Mcm10-4A (Mcm10-I26A-L30A-R37A-L40A) (natural protein) MNDPREILAVDPYNNITSDEEDEQAAAREAEFMERKAQAAVERLKRKQEFKKPQDPNFEAIEVPQSPTKNRVKVGSHNATQQGTKFEGSNINEVRLSQLQQQPKPPASTTTYFMEKFQNAKKNEDKQIAKFESMMNARVHTFSTDEKKYVPIITNELESFSNLWVKKRYIPEDDLKRALHEIKILRLGKLFAKIRPPKFQEPEYANWATVGLISHKSDIKFTSSEKPVKFFMFTITDFQHTLDVYIFGKKGVERYYNLRLGDVIAILNPEVLPWRPSGRGNFIKSFNLRISHDFKCILEIGSSRDLGWCPIVNKKTHKKCGSPINISLHKCCDYHREVQFRGTSAKRIELNGGYALGAPTKVDSQPSLYKAKGENGFNIIKGTRKRLSEEEERLKKSSHNFTNSNSAKAFFDEKFQNPDMLANLDNKRRKIIETKKSTALSRELGKIMRRRESSGLEDKSVGERQKMKRTTESALQTGLIQRLGFDPTHGKISQVLKSSVSGSEPKNNLLGKKKTVINDLLHYKKEKVILAPSKNEWFKKRSHREEVWQKHFGSKETKETSDGSASDLEII	–	binding result [1]: binds
binds	radiolabeled PKA-Mcm10-4A (Mcm10-I26A-L30A-R37A-L40A) (natural protein, 32P label put on the PKA tag by protein kinase A with [gamma-32P]-ATP) MNDPREILAVDPYNNITSDEEDEQAAAREAEFMERKAQAAVERLKRKQEFKKPQDPNFEAIEVPQSPTKNRVKVGSHNATQQGTKFEGSNINEVRLSQLQQQPKPPASTTTYFMEKFQNAKKNEDKQIAKFESMMNARVHTFSTDEKKYVPIITNELESFSNLWVKKRYIPEDDLKRALHEIKILRLGKLFAKIRPPKFQEPEYANWATVGLISHKSDIKFTSSEKPVKFFMFTITDFQHTLDVYIFGKKGVERYYNLRLGDVIAILNPEVLPWRPSGRGNFIKSFNLRISHDFKCILEIGSSRDLGWCPIVNKKTHKKCGSPINISLHKCCDYHREVQFRGTSAKRIELNGGYALGAPTKVDSQPSLYKAKGENGFNIIKGTRKRLSEEEERLKKSSHNFTNSNSAKAFFDEKFQNPDMLANLDNKRRKIIETKKSTALSRELGKIMRRRESSGLEDKSVGERQKMKRTTESALQTGLIQRLGFDPTHGKISQVLKSSVSGSEPKNNLLGKKKTVINDLLHYKKEKVILAPSKNEWFKKRSHREEVWQKHFGSKETKETSDGSASDLEII	–	binding result (GST-Dbf4): binds; binding result (GST-Cdc45): binds
–	blunt dsDNA (called 30mer) (dsDNA) DNA 1: ATGTCCTAGCAAGCCAGAATTCGGCAGCGTC DNA 2: GACGCTGCCGAATTCTGGCTTGCTAGGACAT	binds	–
–	80mer ssDNA (80dT) (ssDNA) DNA: TTTTTTTTTTTTTTTTTTTTTTTTTTTTTTTTTTTTTTTTTTTTTTTTTTTTTTTTTTTTTTTTTTTTTTTTTTTTTTTT	binds	–
